Experimental data from US20220281936.

How the values were obtained:
Mouse IL12 (unmodified) = molecular target: T1, Mouse IL12 (unmodified)
T1 chain 1: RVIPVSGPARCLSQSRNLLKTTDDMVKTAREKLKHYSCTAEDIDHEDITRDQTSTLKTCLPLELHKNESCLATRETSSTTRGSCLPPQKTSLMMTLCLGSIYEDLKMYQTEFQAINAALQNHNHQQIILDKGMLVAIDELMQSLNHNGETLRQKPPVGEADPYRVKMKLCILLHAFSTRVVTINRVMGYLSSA
T1 chain 2: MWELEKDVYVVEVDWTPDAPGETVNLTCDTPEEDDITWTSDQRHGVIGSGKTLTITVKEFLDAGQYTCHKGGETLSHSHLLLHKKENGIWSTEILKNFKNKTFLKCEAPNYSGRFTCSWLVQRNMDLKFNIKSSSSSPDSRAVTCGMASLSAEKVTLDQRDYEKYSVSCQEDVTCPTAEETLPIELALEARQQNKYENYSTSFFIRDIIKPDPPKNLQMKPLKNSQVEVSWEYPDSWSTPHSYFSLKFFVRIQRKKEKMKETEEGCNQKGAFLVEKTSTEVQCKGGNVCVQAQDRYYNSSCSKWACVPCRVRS

B1: Recombinant mouse MMP9 (protein)
chain: FQTFKGLKWDHHNITYWIQNYSEDLPRDMIDDAFARAFAVWGEVAPLTFTRVYGPEADIVIQFGVAEHGDGYPFDGKDGLLAHAFPPGAGVQGDAHFDDDELWSLGKGVVIPTYYGNSNGAPCHFPFTFEGRSYSACTTDGRNDGTPWCSTTADYDKDGKFGFCPSERLYTEHGNGEGKPCVFPFIFEGRSYSACTTKGRSDGYRWCATTANYDQDKLYGFCPTRVDATVVGGNSAGELCVFPFVFLGKQYSSCTSDGRRDGRLWCATTSNFDTDKKWGFCPDQGYSLFLVAAHEFGHALGLDHSSVPEALMYPLYSYLEGFPLNKDDIDGIQYLYGRGSKPDPRPPATTTTEPQPTAPPTMCPTIPPTAYPTVGPTVGPTGAPSPGPTSSPSPGPTGAPSPGPTAPPTAGSSEASTESLSPADNPCNVDVFDAIAEIQGALHFFKDGWYWKFLNHRGSPLQGPFLTARTWPALPATLDSAFEDPQTKRVFFFSGRQMWVYTGKTVLGPRSLDKLGLGPEVTHVSGLLPRRLGKALLFSKGRVWRFDLKSQKVDPQSVIRVDKEFSGVPWNSHDIFQYQDKAYFCHGKFFWRVSFQNEVNKVDHEVNQVDDVGYVTYDLLQCP
Q: For B1, which “proteolytic cleavage, SDS-PAGE (30 min, 37 C)” value (IL12Rβ1-VP-IL12) is on record?
A: MMP2 and MMP9 fully cleaved the IL12Rβ1 portion, yielding IL12 heterodimer (-60 kDa)

Q: And the “proteolytic cleavage, SDS-PAGE” value (Mouse IL12 (unmodified))?
A: These enzymes had no effect on IL12 itself
